Measured values from the nanobody polyreactivity screen of Harvey et al. (2022).

assay: yeast display, Sf9 membrane polyspecificity reagent, FACS + sequencing; frameworks hold sequencing errors
Procedure, shortened: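 Genes from sorted yeast were amplified by colony PCR, read by MiSeq 2 × 250 sequencing and filtered on CDR length. These cells carried a synthetic nanobody library in Saccharomyces cerevisiae BJ5465 and were sorted by FACS into low and high (top ~1%) gates on anti-HA and streptavidin fluorescence. Polyreactivity is labelled according to the gate of origin.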

Sequence | polyreactivity (PSR sort gate)
QVQLVESGAGLVQAGGSLSLSCAASVSILRFYAMGWYRQAPGKERELVAAISTRGGSTYYADSVKGRFTISRVNAKYTVYLQMNSLKPEDTAVYYCAKRWPQYTDYKPMYYWGQGTQLTVSS | high polyreactivity
QVQLVESGAGLVQAGGTLRLSCAASGRTRQYNDMGWYRQAPGKERELVAAMTWSGGLTYYADSVKGRFTISRDNAKNTVYLKMNCLKPEDTAVYYCAVDGGTPGALRRFNYWGQGTQVTVSS | high polyreactivity
QVQLVESGAGLVQAGVSLRLSCAASGRIFVVNAMGRYRHAPGKERELVAAISRGGSTNYADSVKGPFTISRDNAKNTVYLQMNSLKPEDTAVYYCNADGSSYWYPVPLDGGDYWGQGTLVTVSS | low polyreactivity
QVQLVESGAGLVQAPGSLRLSCAASGRTFPRNAMGRYRQAPGKERDLVATISLSGGSTYYADSVKGRFTISRDNAKNTVYLQMNSLKPEDSADYYCARTRNPWPTSFDYWGQGTQVTVSS | low polyreactivity
QVQLVESGAGLVQEGGRLRLRCAASGFTFMDNAMGCYRKAPGKETQLVAAISRSGGSTYYADSVKGRFTISRDNAKNTVYLQMKSLKPEDTEGFYCAAFLYRSQYSGFEYWGQGTQVTVSS | high polyreactivity
QVQLVESGAGLVQEGGSLRLSCAASGRTSGFNTMGRYRQAPGKETQLVAAISFSGGSTYYADSVKGRFTISRDNEKNTVYLQMNSLKPEDTEVYYCNALYRYLYRSGDYWGQGTQVSVSS | low polyreactivity
QVQLVESGAGLVQEGGSLRLSCAASGSIFQAYAMGWYRKAPGKERELVANISSGGSTNYADSVKGRFTISRDNAKNTVYLQMNSLKPEDTAVYYCAASRWIFVLTYEYDYWNRRDYWGQGTQVTVSS | low polyreactivity
QVQLVESGARLVQAGGSLRLSCAASGFIFRAYTMGWYRQAPGKERELVAAITSSGGRTYYADSVKGRFTISRDNAKNTVYLQMNSLKPEDTAVYYCATVDAKWKQFDYWGQGTQVTVSS | high polyreactivity
QVQLVESGARLVQAGGSLRLSCAASGLIFYGNAMGWYRQAPGKERELVAAISRRGGRTYYADSVKGRFTISRDNAENTVYLQKNSLKPEDTAVYYCAAQYSYPYYKVTLYYWGQGTQVTVSS | high polyreactivity
QVQLVESGEGLVQAGGSLRLSCAASGITFFRNTMGWYRHAPGKERELVAAISKSGDNTYYADSVKVRFTISRDNAKNTVYLQMNSLKPEDTAVYYCNKAYRKFYYGYDYWGQGTQVTVSS | high polyreactivity
QVQLVESGGAFVQAGGSLRLSCAASGIIFERNAMGWYRQAPGNERELVAAISGGGSTNYADSVKGRFTISRDNEMNTVYLQRISLKPDDTAVYYCAGKAARRRGYYYWGQGTQVTVSS | high polyreactivity
QVQLVESGGALVQAGGRLRLSCAASGSILVTNDMGLYRQAPGKDRELEAAICWSGGSTYYADSVKGRFTISRDNAKNSVYLQMNSLKPEDTAVYYCAAGLGFLFARQALEFDYWGQGTKVTVSS | low polyreactivity
QVQLVESGGALVQAGGRLRLSCAASGSTFTYNAMGWYRQAPGKERELVASISSGTTTYYADSVKGRFTISRDNAKNTVSLQMNSLKPEDTAVYDCAVDSWSRVQGWLAHNYDYWGQGTQVTVSS | low polyreactivity
QVQLVESGGALVQAGGSHRLSCAASGRIFAGNAMGWYRMAPGKEMELLAAISKSGGSTYYADSVKGRFTISRDNAKNTVYLQMNSLKAEDTAVSYCAKLYYPVSDQYDYYYWGPGTQVTVSS | low polyreactivity
QVQLVESGGALVQAGGSIRLSCAASGRIFLHYAMGWYRQAPGKERELVAAISSSGGSTYYADSVKGRFTISRDNAKNTVYLQMKSLKPEDTAVYYCAAAYPVKTTEGYYYWGQGTHVTVSS | high polyreactivity
QVQLVESGGALVQAGGSLRISCAASGLIITHYAMGWYRQAPGKEMELVAAISNGGSTNYADSEKGRFTISRDNAKNTVYLEMNSLKPEDTAVSFCNARPNKYYAYPATRGKYYYWGQATQVTVSS | low polyreactivity
QVQLVESGGALVQAGGSLRISCAASGLIIVRKAMGLYRQAPGKERELVAAIRWSGGSTYYADSVKGRFTISRDNGNNTVFLQMNRLKPEDTSVYYCAATGYGFDMDYWGQGTQVNVSS | low polyreactivity
QVQLVESGGALVQAGGSLRISCAASGRTLSAYAMGLYRQAPGKERELVAVISRSGGRTYYADSVKGRFTISRDNAKNTVYLQMNSLKQEDSAVYYCAAGSSRLRALYNYWGQGTQVNVSS | high polyreactivity
QVQLVESGGALVQAGGSLRLSCAASAFIFRINAMGWYRQAPGKERELVAAISGSGGRTYYADSVKGRFTISRDNAKNTVYLQMNSLKPVDTAVYYCARSSGYGFNYWGQGTQVTVSS | high polyreactivity
QVQLVESGGALVQAGGSLRLSCAASAGNFTGYAMGWSRQAPGKERELVATITSGGSTNYADSVKGRFTISRDNAKNSFYFQLNSLKPEDTAVYYCALDYIGDTPIWQYDYWGQGTQVTVSS | low polyreactivity
QVQLVESGGALVQAGGSLRLSCAASGFIFHYYAMGWYRQAPGKERELVAAISKTGGSTYYADSVKGRFTISRDNAKNTVYLQMNSLKPEDTAVYYCAVARSAYYRGNHWGQGTQVTVSS | high polyreactivity
QVQLVESGGALVQAGGSLRLSCAASGGTFYTYAMGWYRQAPGKERELVATITRRGGSTYYADSVKGRFTISRDNAKNTVYLQMKSLKPEDTAVYYCAARSYISTRPIMGYWGQGTQVTVSS | high polyreactivity

Sequence | polyreactivity (PSR sort gate)
QVQLVESGGALVQAGGSLRLSCAASGLTFIAYALGWYRQAPGKERELVASIDSGGGTNYADSVKGRFTISRDNAKNTVYLQMNSLKREDTAVYYCAAESPLYWVDDFESGWRYYYWGQGTHVTVSS | low polyreactivity
QVQLVESGGALVQAGGSLRLSCAASGNTFIPNAMGWYRQAPGKERELVAAIRASGGSTYYADSVKGRFTISRDNAKNTVYLQMNSLKPEDTAVYYCNADIWYKTYDYWGQGTQVTVSS | low polyreactivity
QVQLVESGGALVQAGGSLRLSCAASGRIFRAYAMGWYRQAPGKERELVAAISRSGGSTYYADSVKGRFTISRDNAKNTVYLQMNSLKPEDTAVYYCAAEYYFIDTGEYDYWGQGTQVSVSS | high polyreactivity
QVQLVESGGALVQAGGSLRLSCAASGRILRGNAMGWYRPAPGKERELVADINYSDGSTYYADSVKGRFTISRDNAKNTVYLQMNSLKPEDTAVYYCAKKNPLVFTSGMDYWGQGTQVTVSS | low polyreactivity
QVQLVESGGALVQAGGSLRLSCAASGRTFYFYTMGWYRQAPGKERDLVAAISWSGGSTYYADSVKGRFTISRDTAKNNFYLQMKRLKPEDTAVYYCAASSRWEQSKDQFYYWGQGTHVTVSS | low polyreactivity
QVQLVESGGALVQAGGSLRLSCAASGRTYRWYAMGWYRQAPGKESELVARIRGSGGSTYADSVKGRFTISRDNAKNTVNLEMNSLTPEDTAVYYCARKVTGRNGAQFYVSYYYWGQGTQVPVSS | low polyreactivity
QVQLVESGGALVQAGGSLRLSCAASGSIFDQYTMRWYRQAPGKDRELVAAIRFSGGSTSYADSVKGRFTISRDNAKNTVYLQMNSLKPDDTAVYYCNADSQPWRFGYWGQGTQVTVSS | low polyreactivity
QVQLVESGGALVQAGGSLRLSCAASGSIFYKYTMGWYRQAPGKERELVAAISRSGGSTYYADSVKGRFTISRDNAKNTVYLQMNSLKTEDTAVYYCATTGRVPGEYWGQGTQVTVSS | high polyreactivity
QVQLVESGGALVQAGGSLRLSCAASGSTFPTNAMGWYRQAPGKERELVAAITSSTGSTYYADSVKGRFTISRDNAKNTVYLQMNSLKPEDTAVYSCAKSKQWQRYLRGNYWGQGTQVTVSS | low polyreactivity
QVQLVESGGALVQAGGSLRLSCAASGSTFSWYAMGWYRQAPGKERELVAAITTRGGSTYYADSVKGRFTISRDNAKNTVYLQMTRLKPEDTAVYYCAADDGWDFGRGRYDYWGQGTQVTVSS | low polyreactivity
QVQLVESGGALVQAGGSLRLSCAASGSTFVTYAMGWYRQAPGKEREFVAAISWRGGRTYYADSVKGRFSISRDNAKNTVYLQMNSLKPEDTAVYYCAVRTLQRGKHDLGVDYWGQGTQVTVSS | high polyreactivity
QVQLVESGGALVQAGGSLRLSCAASGSTFYYYAMGWYRQAPGKEREFVAAISGGDGTTSYADSVKGRFTISRDNAKKTVYLQMNSLKPEDTAFYYCASPYTSYLYGYDYWGQGTQVTVSS | low polyreactivity
QVQLVESGGALVQAGGSLRLSCAASGSTLVTNAMGWYRKAPGKERELVAAITFSGGTTYYADSVKGRFTISRDNAKNTVYLQMNSLTPEDTAVYYCGAEIWLEYVGYDYWGQGTQVTVSS | high polyreactivity
QVQLVESGGALVQAGGSLRLSCAASGYIFDRYAMGWYRQAPGKEWELVAAISGRGGSTYYADSVKGRFTISRDNAKNTVYLQMNSLKPEDTAVYYCAAARSWHLYHRYDYWGQGTQVTVSS | high polyreactivity
QVQLVESGGALVQAGGSLRLSCSASGSLFIYYAIRWYRQAPGKERELVAAISISGARTYYADSVKGRFTNSRDNAKNTVYLQMNSLKPEDTAVYYCNVSSRRLRGLDYWGQVTQVTVSS | low polyreactivity
QVQLVESGGALVQAGGSLRLSSAASGLTFYYYAMGRYRQAPGKERELVAAITGSGGRTYYADSVKGRFTISRDNAKNNVYLQMNSLKPEDTAVYYCAASWPNYLYEYWGQGTQVTVSS | high polyreactivity
QVQLVESGGALVQAGGSLRLTSAASGFTFFRNAMRWYRQAPGKERELVAAINWSGGSTYYADSVKGRFTISRDNAKNTVYLQMHSLKPEDTAVYFCAADLSSTESDYWRQGTQVTVSS | high polyreactivity
QVQLVESGGALVQAGVSLRLSCSASGSTFTKYAIRWYRQAPGKERELVAAITRGGSTTYADSVKGRFTISRDNAKNTVYLQMNSLKPEDTAVYFCNAQYQSGYYTSYPERFDYRGQGTQVTVSS | low polyreactivity
QVQLVESGGCIVQAGGSLRFSCAASGFTFNRYAMGWYRQAPGKERELVAAITRRGGSTYYADSVKGRFTISRDNAKNTVYFQMNSLKPEDTAVYYCNVDFQAYGIPMDYWGQGTQVNVSS | high polyreactivity
QVQLVESGGCLDQAGGSLRLSSAASGRIFFGYAMGWYRQAPGKEREFVAAISSVGSTNYADSVKGRFTISRDNAKNTVYLQMNSLKPEDTAVYYCAAAPRSGGKYGSDGGDYWGQGTQVTVSS | low polyreactivity
QVQLVESGGCLLQAGGSLRLSCAASGYIFERNAMGWYRQAPGKERELVAAITDDGDDTYYADSVKGRFTISRDNEKNTVYLQMNSLKPEDTAVYYCAKDLYYGDYYYWGQGTQVTVSS | low polyreactivity
